Ratio to parent, response (normalized biotin/FLAG) and Kd data for 34 substances are collected here from article PMC12476836.

Assay [1] addresses FLAG-GFP-SLiM DDSVFA (FGFR3). Description: BioID2 proximity labeling (streptavidin immunoblot quantification). The settings on record: n = 3, FLAG-GFP-SLiM +DDSVFA (FGFR3).
In assay [2] the target is FLAG-GFP-SLiM DDSVFS (FGFR2). Described as above. The settings on record: n = 3, FLAG-GFP-SLiM +DDSVFS (FGFR2).
Assay [3] addresses FLAG-GFP-SLiM EDSVFS (FGFR1). The description is as above. The settings on record: n = 3, FLAG-GFP-SLiM +EDSVFS (FGFR1).
Assay [4] deals with FLAG-GFP-SLiM with the predicted DDVF-like motif of TMEM139. The description is as above. The settings on record: n = 3; FLAG-GFP-SLiM +DDSVFY (TMEM139); parent: est. 2.4; read off a plot.
Assay [5] deals with FLAG-GFP-SLiM with the predicted DDVF-like motif of PTPN3. The description is as above. The settings on record: n = 3; FLAG-GFP-SLiM +TEDVFY (PTPN3); parent: est. 1.6; read off a plot.
Assay [6] concerns the target FLAG-GFP-SLiM with the predicted DDVF-like motif of TRM9B. The assay is described as above. The conditions noted are these: n = 3; FLAG-GFP-SLiM +DEEVFV (TRM9B); parent: est. 1.2; read off a plot.
Assay [7] addresses FLAG-GFP-SLiM with the predicted DDVF motif of GTSE1. The description is as above. The settings on record: n = 3, FLAG-GFP-SLiM +DDEVFF (GTSE1).
For assay [8], the target named is unnamed. The assay is described as follows: affinities annotated in the ELM database (various methods, AffinityMin). The settings on record: cited from earlier work.
Assay [9] addresses unnamed. The conditions noted are these: cited from earlier work.
For assay [10], the target named is unnamed. The conditions noted are these: cited from earlier work. This is another data set of the same source.
Target sequence in this assay (P12004 127-254): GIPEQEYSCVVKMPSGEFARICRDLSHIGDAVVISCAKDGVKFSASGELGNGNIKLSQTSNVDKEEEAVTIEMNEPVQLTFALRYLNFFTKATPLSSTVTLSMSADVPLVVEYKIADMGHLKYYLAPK

Like-named read-outs stand apart in the source and are kept apart here.

Chain of Q99816 (Q99816 whole entry, looked up): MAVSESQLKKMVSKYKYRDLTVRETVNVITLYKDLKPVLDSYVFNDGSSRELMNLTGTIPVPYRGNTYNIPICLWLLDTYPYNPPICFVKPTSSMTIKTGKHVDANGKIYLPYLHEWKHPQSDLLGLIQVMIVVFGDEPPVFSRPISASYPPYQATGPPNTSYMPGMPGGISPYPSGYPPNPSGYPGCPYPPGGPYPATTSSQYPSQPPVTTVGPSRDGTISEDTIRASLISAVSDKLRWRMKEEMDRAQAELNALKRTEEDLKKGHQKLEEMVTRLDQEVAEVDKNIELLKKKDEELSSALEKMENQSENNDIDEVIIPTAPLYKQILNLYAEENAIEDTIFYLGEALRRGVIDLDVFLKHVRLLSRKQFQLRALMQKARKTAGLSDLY
Chain of Q15004 (Q15004 whole entry, looked up): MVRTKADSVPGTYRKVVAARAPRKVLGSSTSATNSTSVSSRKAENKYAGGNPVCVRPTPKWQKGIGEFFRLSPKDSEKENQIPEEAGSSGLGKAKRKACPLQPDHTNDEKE
Chain of Q8TEB9 (Q8TEB9 whole entry, looked up): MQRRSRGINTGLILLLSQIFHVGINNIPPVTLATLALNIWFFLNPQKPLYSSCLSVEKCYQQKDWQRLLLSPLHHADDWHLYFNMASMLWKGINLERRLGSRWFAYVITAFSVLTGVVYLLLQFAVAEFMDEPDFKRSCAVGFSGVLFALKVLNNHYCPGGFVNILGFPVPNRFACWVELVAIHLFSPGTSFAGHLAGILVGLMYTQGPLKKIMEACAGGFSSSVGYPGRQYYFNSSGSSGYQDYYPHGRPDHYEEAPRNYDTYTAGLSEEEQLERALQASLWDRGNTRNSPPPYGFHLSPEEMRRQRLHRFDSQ
Chain of Q9UNA4 (Q9UNA4 whole entry, looked up): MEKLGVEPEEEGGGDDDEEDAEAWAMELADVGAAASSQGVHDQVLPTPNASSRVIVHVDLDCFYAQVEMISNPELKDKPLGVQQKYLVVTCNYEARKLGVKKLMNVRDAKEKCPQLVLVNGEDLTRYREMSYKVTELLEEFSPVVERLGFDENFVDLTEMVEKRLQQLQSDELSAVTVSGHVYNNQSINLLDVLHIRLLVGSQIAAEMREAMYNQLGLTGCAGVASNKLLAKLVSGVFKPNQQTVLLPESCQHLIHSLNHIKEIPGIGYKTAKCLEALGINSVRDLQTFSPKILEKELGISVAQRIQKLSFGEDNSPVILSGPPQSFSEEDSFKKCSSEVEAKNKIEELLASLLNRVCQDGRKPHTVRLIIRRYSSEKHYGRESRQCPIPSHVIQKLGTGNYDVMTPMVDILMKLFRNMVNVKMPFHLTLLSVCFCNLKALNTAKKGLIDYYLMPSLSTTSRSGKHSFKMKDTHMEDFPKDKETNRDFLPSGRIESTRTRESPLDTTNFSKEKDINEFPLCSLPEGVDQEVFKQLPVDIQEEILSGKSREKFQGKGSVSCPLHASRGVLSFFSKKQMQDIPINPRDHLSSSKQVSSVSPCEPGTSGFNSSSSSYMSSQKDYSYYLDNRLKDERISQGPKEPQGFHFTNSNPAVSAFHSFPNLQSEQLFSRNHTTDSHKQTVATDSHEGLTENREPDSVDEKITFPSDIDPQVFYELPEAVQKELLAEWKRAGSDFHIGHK
Chain of Q92844 (Q92844 whole entry, looked up): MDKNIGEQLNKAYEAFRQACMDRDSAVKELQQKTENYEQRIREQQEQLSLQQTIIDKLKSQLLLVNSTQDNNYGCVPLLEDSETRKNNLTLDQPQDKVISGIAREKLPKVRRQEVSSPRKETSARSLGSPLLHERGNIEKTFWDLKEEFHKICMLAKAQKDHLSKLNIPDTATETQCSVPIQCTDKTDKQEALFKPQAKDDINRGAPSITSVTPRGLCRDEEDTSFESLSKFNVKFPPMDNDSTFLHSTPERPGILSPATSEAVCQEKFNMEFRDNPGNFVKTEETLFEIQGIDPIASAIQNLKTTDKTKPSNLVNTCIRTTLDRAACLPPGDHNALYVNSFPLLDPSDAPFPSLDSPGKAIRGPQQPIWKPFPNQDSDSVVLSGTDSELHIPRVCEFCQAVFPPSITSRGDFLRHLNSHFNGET
Chain of Q13137 (Q13137 whole entry, looked up): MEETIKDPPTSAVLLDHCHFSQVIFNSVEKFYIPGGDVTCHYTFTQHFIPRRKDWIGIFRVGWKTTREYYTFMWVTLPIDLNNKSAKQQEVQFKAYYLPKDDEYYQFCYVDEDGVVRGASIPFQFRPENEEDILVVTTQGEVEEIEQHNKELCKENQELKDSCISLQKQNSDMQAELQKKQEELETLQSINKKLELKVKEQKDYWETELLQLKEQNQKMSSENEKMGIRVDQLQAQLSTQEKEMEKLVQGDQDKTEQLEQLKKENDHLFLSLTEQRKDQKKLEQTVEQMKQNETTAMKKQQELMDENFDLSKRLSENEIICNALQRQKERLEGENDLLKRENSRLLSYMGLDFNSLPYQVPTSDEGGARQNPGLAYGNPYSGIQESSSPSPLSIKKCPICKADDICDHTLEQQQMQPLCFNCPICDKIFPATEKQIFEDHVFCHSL
Chain of Q01094 (Q01094 whole entry, looked up): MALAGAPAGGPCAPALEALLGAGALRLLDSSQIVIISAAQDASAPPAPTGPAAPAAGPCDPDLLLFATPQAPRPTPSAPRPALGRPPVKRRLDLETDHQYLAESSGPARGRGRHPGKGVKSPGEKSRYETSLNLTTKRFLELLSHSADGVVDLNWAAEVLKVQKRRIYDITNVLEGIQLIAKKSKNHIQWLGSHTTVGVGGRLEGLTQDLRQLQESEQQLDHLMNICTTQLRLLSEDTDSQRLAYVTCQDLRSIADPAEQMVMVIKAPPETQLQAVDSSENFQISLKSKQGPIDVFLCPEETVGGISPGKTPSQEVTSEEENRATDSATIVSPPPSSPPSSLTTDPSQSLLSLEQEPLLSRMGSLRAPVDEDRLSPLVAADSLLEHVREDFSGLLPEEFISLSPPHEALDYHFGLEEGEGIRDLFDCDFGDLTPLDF
Chain of P01042 (P01042 whole entry, looked up): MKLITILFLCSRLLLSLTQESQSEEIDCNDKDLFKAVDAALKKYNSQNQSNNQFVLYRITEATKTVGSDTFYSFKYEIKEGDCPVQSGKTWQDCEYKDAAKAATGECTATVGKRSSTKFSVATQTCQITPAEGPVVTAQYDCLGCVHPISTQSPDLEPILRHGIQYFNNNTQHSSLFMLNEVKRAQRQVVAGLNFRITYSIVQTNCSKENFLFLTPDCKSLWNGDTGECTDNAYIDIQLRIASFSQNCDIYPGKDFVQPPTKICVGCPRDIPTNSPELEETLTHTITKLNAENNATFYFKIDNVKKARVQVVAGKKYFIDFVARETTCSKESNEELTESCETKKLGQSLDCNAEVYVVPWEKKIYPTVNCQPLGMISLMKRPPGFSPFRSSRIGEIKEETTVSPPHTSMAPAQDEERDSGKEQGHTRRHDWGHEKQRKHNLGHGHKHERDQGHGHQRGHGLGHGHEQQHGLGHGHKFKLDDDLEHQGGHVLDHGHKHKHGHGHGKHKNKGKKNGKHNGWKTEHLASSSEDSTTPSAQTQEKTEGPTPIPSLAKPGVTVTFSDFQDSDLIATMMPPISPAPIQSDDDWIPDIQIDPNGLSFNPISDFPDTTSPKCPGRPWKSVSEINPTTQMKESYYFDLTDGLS
Chain of P17535 (P17535 whole entry, looked up): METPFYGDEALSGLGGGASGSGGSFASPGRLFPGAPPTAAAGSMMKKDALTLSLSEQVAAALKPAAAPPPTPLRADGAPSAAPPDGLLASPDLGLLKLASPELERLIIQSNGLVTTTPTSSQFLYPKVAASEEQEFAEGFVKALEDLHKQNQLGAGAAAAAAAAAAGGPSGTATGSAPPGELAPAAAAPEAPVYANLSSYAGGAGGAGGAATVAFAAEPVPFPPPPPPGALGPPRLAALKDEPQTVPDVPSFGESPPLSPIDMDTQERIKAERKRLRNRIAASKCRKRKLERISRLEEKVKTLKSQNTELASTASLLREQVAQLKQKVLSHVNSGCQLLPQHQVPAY
Chain of Q86VZ6 (Q86VZ6 whole entry, looked up): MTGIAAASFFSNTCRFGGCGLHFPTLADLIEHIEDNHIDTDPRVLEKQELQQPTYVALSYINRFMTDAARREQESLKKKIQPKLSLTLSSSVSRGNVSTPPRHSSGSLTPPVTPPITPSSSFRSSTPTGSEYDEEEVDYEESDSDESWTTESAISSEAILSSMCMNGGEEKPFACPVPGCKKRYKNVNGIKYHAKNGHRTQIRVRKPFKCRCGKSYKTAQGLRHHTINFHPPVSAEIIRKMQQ
Chain of P01137 (P01137 whole entry, looked up): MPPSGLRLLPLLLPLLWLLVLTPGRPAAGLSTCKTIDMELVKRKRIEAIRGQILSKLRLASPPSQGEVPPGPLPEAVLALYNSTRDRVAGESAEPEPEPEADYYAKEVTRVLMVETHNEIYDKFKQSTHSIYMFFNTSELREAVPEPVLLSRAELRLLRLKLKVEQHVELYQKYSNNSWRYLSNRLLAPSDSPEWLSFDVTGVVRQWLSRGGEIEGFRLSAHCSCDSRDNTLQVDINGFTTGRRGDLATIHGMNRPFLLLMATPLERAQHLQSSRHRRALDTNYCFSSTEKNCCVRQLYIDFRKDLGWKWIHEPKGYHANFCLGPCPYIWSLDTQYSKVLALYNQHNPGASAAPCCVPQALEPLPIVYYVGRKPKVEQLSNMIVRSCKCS
Chain of Q6NS38 (Q6NS38 whole entry, looked up): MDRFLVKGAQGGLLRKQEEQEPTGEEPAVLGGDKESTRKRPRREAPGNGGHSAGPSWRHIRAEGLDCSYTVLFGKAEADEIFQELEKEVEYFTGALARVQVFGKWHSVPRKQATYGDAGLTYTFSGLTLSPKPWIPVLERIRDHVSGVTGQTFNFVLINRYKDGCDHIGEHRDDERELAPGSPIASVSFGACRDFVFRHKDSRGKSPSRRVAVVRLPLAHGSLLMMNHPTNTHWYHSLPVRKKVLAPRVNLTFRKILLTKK

“HA-RSK(WT)-BioID2 (wild-type human RSK2, ribosomal protein S6 kinase A3, fused to BioID2) (from UniProt P51812) KAKLGM-to-KSEPPY”: the ratio to parent is 2.4 fold in [1] (marked *), 3.8 fold in [2] (marked *), 2.4 fold in [3] (marked *) and 2.3 fold in [7] (marked *). Moreover, the response (normalized biotin/FLAG) is 0.43 in [1] (parent: est. 1.0, read off a plot); 0.45 in assay [2] (parent: est. 1.3, read off a plot); 0.6 in assay [3] (parent: est. 1.4, read off a plot); 0.4 in [4]; 1.1 in assay [5]; 0.85 in assay [6]. For the same substance, in [7] (parent: est. 0.85, read off a plot), the response (normalized biotin/FLAG) was 0.38.
Turning to O75367 (from UniProt O75367), in [8], the Kd is 63600 nM.
As to O95630 (from UniProt O95630), the Kd in [8] was 473 nM.
Regarding P01042 (from UniProt P01042), in assay [8], the Kd was 110000 nM.
As to P01137 (from UniProt P01137), the Kd in assay [8] was 7.2 nM.
Regarding P06400 (from UniProt P06400), the Kd in [8] was 3900 nM.
P10451 (from UniProt P10451): the Kd in assay [8] is 0.43 nM.
With P14784 (from UniProt P14784), in assay [8], the Kd was 750 nM.
Regarding P17535 (from UniProt P17535), in [8], the Kd is 73000 nM.
Consider P30279 (from UniProt P30279), for which the Kd in assay [8] is 2500 nM.
With P46108 (from UniProt P46108), in assay [8], the Kd is 10200 nM.
For the substance P49137 (from UniProt P49137), in assay [8], the Kd was 50 nM.
Regarding P61081 (from UniProt P61081), the Kd in assay [8] is 1800 nM.
Consider Q6NS38 (from UniProt Q6NS38), for which the Kd in [8] is 240 nM.
Q8NHG7 (from UniProt Q8NHG7): the Kd in [8] was 5880 nM.
On to Q8TEB9 (from UniProt Q8TEB9), for which the Kd in [8] is 66500 nM.
Q8WUK0 (from UniProt Q8WUK0): in [8], the Kd was 530 nM.
On to Q9H0W5 (from UniProt Q9H0W5), for which, in [8], the Kd is 180 nM.
With Q9H9L4 (from UniProt Q9H9L4), the equilibrium dissociation constant (Kd) in assay [8] is 8600 nM.
Take Q9NZM5 (from UniProt Q9NZM5): the Kd in assay [8] is 23300 nM.
With Q9UNA4 (from UniProt Q9UNA4), the Kd in [8] is 300 nM.
Take Q9UQ84 (from UniProt Q9UQ84): the Kd in assay [8] is 16500 nM.
Regarding Q9Y698 (from UniProt Q9Y698), the Kd in assay [8] was 32500 nM.
As for Q52LA3 (from UniProt Q52LA3), the Kd in assay [8] is 1400 nM.
Consider Q86VZ6 (from UniProt Q86VZ6), for which the Kd in assay [8] is 8900 nM.
For Q96AE4 (from UniProt Q96AE4), the Kd in [8] was 6000 nM.
Q96ST2 (from UniProt Q96ST2): the Kd in [8] is 4700 nM.
Turning to Q01094 (from UniProt Q01094), in [8], the Kd was 1060 nM.
With Q13137 (from UniProt Q13137), in assay [9], the Kd was 1600 nM.
For Q13309 (from UniProt Q13309), the Kd in assay [8] is 3200 nM.
For Q15004 (from UniProt Q15004), in [10], the Kd was 1000 nM.
As to Q15054 (from UniProt Q15054), the equilibrium dissociation constant (Kd) in assay [8] is 1700 nM.
On to Q92844 (from UniProt Q92844), for which, in assay [8], the Kd was 14000 nM.
Turning to Q99816 (from UniProt Q99816), in assay [8], the Kd is 1000 nM.
